Test [1] has as its system polymorphic epithelial mucin (PEM). Description: Direct binding ELISA on PEM-coated microwell plates, transiently expressed antibodies. Details: species or system human. Conditions: from all direct binding assays (FIG. 22, 23). As to the method:
Direct binding ELISA assays for determining the binding activity of the transiently expressed antibodies were carried out as follows.
An affinity column was prepared by attaching the CTM01 MAb to a suitable chromatographic medium in conventional manner. In a first method, pooled human urine samples were applied directly to the affinity column. In a second method, human milk was subjected to low speed centrifugation to separate the cream from skimmed milk. The skimmed milk was then subjected to high speed centrifugation to produce an aqueous and a lipid component. The aqueous component was applied to the affinity column.
Once the affinity column was loaded, by either of the two methods, column fractions were eluted at high and low pHs, neutralised and assayed for reactivity with the CTM01 MAb. Fractions showing reactivity were pooled and dialysed.
Microwell plates were coated with PEM obtained as described above. The microwells were then incubated with serial dilutions of culture supernatants.
Direct binding assays were carried out on the culture supernatants produced by the doubly transfected cell lines.
A general note: An ELISA detects its analyte on a solid surface through an enzyme-linked reagent.

For test [2], the system named is MX-1 breast carcinoma cells. Description: In vitro cell binding and internalisation of 125I-labelled antibody, MX-1. It counts as cell-based. Conditions: MX-1 cells; 125I-labelled antibody at 2 μg/million cells; continuous exposure. The method, then: (§1) Antibody, purified from the supernatant of each cultured cell line by protein-A sepharose chromatography was radiolabelled (^125I) and incubated using a conventional continuous exposure method with either MX-1 or MCF-7 breast carcinoma cells. Radiolabelled murine CTMO1 was used in all tests as a comparison. All antibodies were incubated at 2 μg/million cells. The total binding of antibodies to the cells and the peak net uptake of the antibodies by the cells was determined.

The test system of test [3] is MCF-7 breast carcinoma cells. Kind of test: In vitro cell binding and internalisation of 125I-labelled antibody, MCF-7. It counts as cell-based. Conditions: MCF-7 cells; 125I-labelled antibody at 2 μg/million cells; continuous exposure. As to the method:
as §1

B1: gL1gH2: CDR-grafted light chain gL1 with CDR-grafted heavy chain gH2, transiently expressed (antibody, V domains shown)
VH: QIQLVQSGAEVKKPGSSVKVSCKASGYTFTDYYINWMRQAPGQGLEWIGWIDPGSGNTKYNEKFKGRATLTVDTSTNTAYMELSSLRSEDTAFYFCAREKTTYYYAMDYWGQGTLVTVSS
VL: DIQMTQSPSTLSASVGDRVTITCRSSKSLLHSNGDTFLYWFQQKPGKAPKLLMYRMSNLASGVPSRFSGSGSGTEFTLTISSLQPDDFATYYCMQHLEYPFTFGQGTKVEVKR
For B1, the “order of binding activity of antibodies produced by transient expression” value in test [1] was “cLcH3>gL1ch=gL1gH2>cLgH2=gL2H2=gL1gH1=gL2cH>gL2gH1”.

B2: gL1gH1: CDR-grafted light chain gL1 with CDR-grafted heavy chain gH1 (antibody, V domains shown)
VH: QIQLVQSGAEVKKPGSSVKVSCKASGYTFTDYYINWMRQAPGQGLEWMGWIDPGSGNTKYNEKFKGRVTITVDTSTNTAYMELSSLRSEDTAFYFCAREKTTYYYAMDYWGQGTLVTVSS
VL: DIQMTQSPSTLSASVGDRVTITCRSSKSLLHSNGDTFLYWFQQKPGKAPKLLMYRMSNLASGVPSRFSGSGSGTEFTLTISSLQPDDFATYYCMQHLEYPFTFGQGTKVEVKR
With B2, the “order of binding activity of antibodies produced by transient expression” value in test [1] is listed as “cLcH3>gL1ch=gL1gH2>cLgH2=gL2H2=gL1gH1=gL2cH>gL2gH1”.

B3: hu1:CTMO1: CDR-grafted humanised CTMO1, gL1 light chain, gH2 heavy chain, human IgG2 constant domains, from NSO cells (antibody, V domains shown)
VH: QIQLVQSGAEVKKPGSSVKVSCKASGYTFTDYYINWMRQAPGQGLEWIGWIDPGSGNTKYNEKFKGRATLTVDTSTNTAYMELSSLRSEDTAFYFCAREKTTYYYAMDYWGQGTLVTVSS
VL: DIQMTQSPSTLSASVGDRVTITCRSSKSLLHSNGDTFLYWFQQKPGKAPKLLMYRMSNLASGVPSRFSGSGSGTEFTLTISSLQPDDFATYYCMQHLEYPFTFGQGTKVEVKR
For the molecule B3, in test [2], the “Peak Net Uptake (molecules/cell)” value is on record as 150,000 molecules/cell and the “Total Binding, 0° (molecules/cell)” value is on record as 1,200,000 molecules/cell. Besides, in test [3], the “Peak Net Uptake (molecules/cell)” value is 150,000 molecules/cell and the “Total Binding, 0° (molecules/cell)” value is 650,000 molecules/cell.

B4: hu:CTMO1: CDR-grafted humanised CTMO1, gL1 light chain, gH2 heavy chain, altered human IgG4 (IgG4P) constant domains (antibody, V domains shown)
VH: QIQLVQSGAEVKKPGSSVKVSCKASGYTFTDYYINWMRQAPGQGLEWIGWIDPGSGNTKYNEKFKGRATLTVDTSTNTAYMELSSLRSEDTAFYFCAREKTTYYYAMDYWGQGTLVTVSS
VL: DIQMTQSPSTLSASVGDRVTITCRSSKSLLHSNGDTFLYWFQQKPGKAPKLLMYRMSNLASGVPSRFSGSGSGTEFTLTISSLQPDDFATYYCMQHLEYPFTFGQGTKVEVKR
In the case of B4, in test [2], the “Peak Net Uptake (molecules/cell)” value is recorded as 150,000 molecules/cell and the “Total Binding, 0° (molecules/cell)” value is given as 1,100,000 molecules/cell. Also, in test [3], the “Peak Net Uptake (molecules/cell)” value is on record as 90,000 molecules/cell and the “Total Binding, 0° (molecules/cell)” value is 450,000 molecules/cell.

Values taken from patent US6506881B1, “Anti-HMFG antibodies and processes for their production” (Celltech R&D Limited, priority 1991, dated 2003).
